Measured values as given in IntAct's records for PubMed 22632832.

B1: Speckle-type POZ protein (Homo sapiens), O43791 (parent)
chain: MSRVPSPPPPAEMSSGPVAESWCYTQIKVVKFSYMWTINNFSFCREEMGEVIKSSTFSSGANDKLKWCLRVNPKGLDEESKDYLSLYLLLVSCPKSEVRAKFKFSILNAKGEETKAMESQRAYRFVQGKDWGFKKFIRRDFLLDEANGLLPDDKLTLFCEVSVVQDSVNISGQNTMNMVKVPECRLADELGGLWENSRFTDCCLCVAGQEFQAHKAILAARSPVFSAMFEHEMEESKKNRVEINDVEPEVFKEMMCFIYTGKAPNLDKMADDLLAAADKYALERLKVMCEDALCSNLSVENAAEILILADLHSADQLKTQAVDFINYHASDVLETSGWKSMVVSHPHLVAEAYRSLASAQCPFLGPPRKRLKQS

Variants of: B1
Settings: with cul3_human CUL3, Q13618

effect of a mutation on the interaction | Variant
disrupting interaction strength | M233E
